The values that follow come from paper PMC7659345, “Viral rhodopsins 1 are an unique family of light-gated cation channels” (Nature Communications, 2020).

One data set concerns the target Asp76 (position 76, …). The data set can be described thus: UV-vis. The following applies: 10 mM citrate, 10 mM MES, 10 mM HEPES, 10 mM MOPS, 10 mM CHES and 10 mM CAPS. The pH was adjusted with HCl or NaOH in steps of 0.5-0.7 units.; Dark (ground) state with all-trans retinal bound; purified, solubilised protein.
Another data set addresses Asp80 (position 80, …). In words: UV-vis. As to conditions: 10 mM citrate, 10 mM MES, 10 mM HEPES, 10 mM MOPS, 10 mM CHES and 10 mM CAPS. The pH was adjusted with HCl or NaOH in steps of 0.5-0.7 units.; Dark (ground) state with all-trans retinal bound; purified, solubilised protein.

B1: OLPVR1 (viral rhodopsin group 1, viral channelrhodopsin) (Organic Lake phycodnavirus) (protein)
chain: MDNIIMTAYISIFVQIITAIISVYGLFIPLNFKDIILREILILELIVQIIEFIFYIWLIITLQSINEDITYVRYFDWVLTTPVMLLTTVYFFEYMNSDDGIRKKEINDRDYVYLFYICLSNFFMLLIGYLGETKQINKMLTLFGGSFFLFLTFYLLYVKYTKENWMNYIVFYFMFLVWFLYGFAFMFPFSIKNQMYNILDIVSKNIYSIFIFIVILNQSYKLL
Consider B1, for which the pKa (usually the negative logarithm of the acid dissociation constant) with Asp76 (position 76, …) stood at 4.8.

B2: VirChR1 (viral channelrhodopsin 1, viral rhodopsin group 1) (uncultured virus (Tara Oceans metagenomic contig TARA-146-SRF-0.22-3-C376786_1)) (protein)
chain: MKDKELLLLTVKISLVVQIISGIVSSFGIFIKLAPKDYILRDILIIETVVQIVEAIFYVYIYLSLESLDNNVITSRRYFDWVITTPIMLISTILFMRYNIRILYDKSKNKQNRQNKPKSNLTTYNVIKNNKDTIIKIVIGNFIMLCFGYLGEVDILSKTISIPIGFIFFFYVFYLIWREFGSYTQQNQILFWVLFIVWGLYGVSACLPVLQKNICYNILDIISKNFYGLYIFYYIYQHRLVV
For B2, the pKa in the data set with Asp80 (position 80, …) was 3.5.
